The target of assay [1] is T1, membrane-bound CNTFR (m-CNTFR), full-length human CNTFR (amino acids 1-372) (human, UniProt P26992 23-342).
T1 construct: whole, on cells; also called full-length CNTFR; CNTFR on HepG2/CNTFR cells
T1 sequence (looked up): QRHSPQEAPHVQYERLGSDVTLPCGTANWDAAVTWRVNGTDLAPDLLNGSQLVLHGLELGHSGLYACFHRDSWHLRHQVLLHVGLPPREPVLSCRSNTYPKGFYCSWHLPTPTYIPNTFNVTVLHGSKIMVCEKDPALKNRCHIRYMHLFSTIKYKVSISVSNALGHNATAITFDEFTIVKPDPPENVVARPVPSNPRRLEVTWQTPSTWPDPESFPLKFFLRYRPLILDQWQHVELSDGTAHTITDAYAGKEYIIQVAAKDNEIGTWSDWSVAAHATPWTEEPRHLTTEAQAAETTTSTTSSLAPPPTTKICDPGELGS
As to the kind of experiment: CNTF surface binding on HepG2 cells stably transfected with full-length human CNTFR.

In assay [2] the target is T2, solid phase-immobilized CNTFR (UniProt P26992 23-342, limits assumed).
T2 construct: also called CNTF alpha-receptor
T2 sequence (looked up): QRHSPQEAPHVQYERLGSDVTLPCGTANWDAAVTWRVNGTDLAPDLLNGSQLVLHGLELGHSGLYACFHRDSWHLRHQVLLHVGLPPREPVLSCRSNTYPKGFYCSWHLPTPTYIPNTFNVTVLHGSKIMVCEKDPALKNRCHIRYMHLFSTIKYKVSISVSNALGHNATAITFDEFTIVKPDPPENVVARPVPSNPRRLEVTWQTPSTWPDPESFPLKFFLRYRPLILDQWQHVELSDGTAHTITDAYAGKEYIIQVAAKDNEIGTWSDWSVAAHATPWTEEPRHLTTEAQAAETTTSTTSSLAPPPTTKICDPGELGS
As to the kind of experiment: competition with biotinylated CNTF for binding to solid phase-immobilized CNTFR. As to the method: The CNTFR binding activity of CNTF and IA-CNTF was determined by measuring the ability of the proteins to compete with biotinylated CNTF for binding to solid phase-immobilized CNTFR, using a previously described procedure (Saggio et al., 1994; Saggio et al., 1995).

The next assay has as its target T3, soluble CNTFR (s-CNTFR) (UniProt P26992 23-346, limits assumed).
T3 sequence (looked up): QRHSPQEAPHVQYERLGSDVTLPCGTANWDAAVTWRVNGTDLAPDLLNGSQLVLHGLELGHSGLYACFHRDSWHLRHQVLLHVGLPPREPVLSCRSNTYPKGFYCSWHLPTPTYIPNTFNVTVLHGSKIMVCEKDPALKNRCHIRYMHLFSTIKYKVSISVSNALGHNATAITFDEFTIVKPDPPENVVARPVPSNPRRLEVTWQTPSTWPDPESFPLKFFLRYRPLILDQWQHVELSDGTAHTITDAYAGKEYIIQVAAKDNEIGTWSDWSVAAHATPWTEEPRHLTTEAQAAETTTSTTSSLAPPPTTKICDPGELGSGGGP
As to the kind of experiment: cell-based or functional assay.

B1: human ciliary neurotrophic factor, wild type (hCNTF; SEQ ID NO: 1) (ligand)
chain: MAFTEHSPLTPHRRDLCSRSIWLARKIRSDLTALTESYVKHQGLNKNINLDSADGMPVASTDQWSELTEAERLQENLQAYRTFHVLLARLLEDQQVHFTPTEGDFHQAIHTLLLQVAAFAYQIEELMILLEYKIPRNEADGMPINVGDGGLFEKKLWGLKVLQELSQWTVRSIHDLRFISSHQTGIPARGSHYIANNKKM
notes: also called human CNTF; wild-type CNTF
Turning to B1, the binding result in assay [1] is recorded as “binds”.

B2: Thr169Ile/His174Ala/human CNTF (IA-CNTF; SEQ ID NO:2) (ligand)
chain: MAFTEHSPLTPHRRDLCSRSIWLARKIRSDLTALTESYVKHQGLNKNINLDSADGMPVASTDQWSELTEAERLQENLQAYRTFHVLLARLLEDQQVHFTPTEGDFHQAIHTLLLQVAAFAYQIEELMILLEYKIPRNEADGMPINVGDGGLFEKKLWGLKVLQELSQWIVRSIADLRFISSHQTGIPARGSHYIANNKKM
notes: Produced in E. coli, purified by reverse-phase HPLC; also called Thr169Ile/His174Ala/hCNTF
For the molecule B2, the “fold reduction of affinity against wild-type CNTF” value in assay [2] is 15 fold. In the assay with soluble CNTFR (s-CNTFR), the “stimulation of haptoglobin production in HepG2 cells at a subsaturating concentration of s-CNTFR; EC50 relative to CNTF” value was 5 fold (EC50 relative to CNTF).

The values above are taken from US6660467 (INSTITUTO DI RICERCHE DI BIOLOGIA MOLECOLARE P ANGELETTI S …, dated 2003).
